Data: PMC10636607 (Cell Reports, 2023)

How the values were obtained:
[1] = biological target: His6-tagged SARS-CoV-2 receptor-binding domain (SARS-CoV-2, UniProt P0DTC2); test: BLI; conditions: both partners purified
[2] = biological target: biotinylated SARS-CoV-2 fusion peptide (SARS-CoV-2, biotin on the N-terminus); test: BLI; conditions: both partners purified

Row | Binder | fold change in KD against the wild-type Fab [1] [fold] | binding result [2]
1 | GAR12 Fab VL D50K (Fab, V domains shown) VH: EVQLVQSGGGLVQPGGSLRLSCAASGFTFSSYAMSWVRQAPGKGLEWVLSISGSGGSTYYADSVKGRFTISIDNSKKTVYLQMNSLRAEDTAVYYCAKSGEQQLVQAEYFHHWGQGTLVTVSS VL: DIQMTQSPSTLSASVGDRVTITCRASQSIGRWLAWYQQKPGKAPKLLIYKASSLESGVPSRFSGSGFGTEFTLTISSLQPDDFATYYCQQCDSLLTFGGGTKLEIK | 44 | 
2 | COV44-62 Fab VH R50W (Fab, V domains shown) VH: QMQLMQSGAEVKKPGASVTVSCKASGDTFSDYRIHWVRQAPGQGLEWMGWMNPKSGDTNFAQKFQGRVTMTRDMSINTAYMTLSGLTFDDTALYYCASLLIVGGFDPLDDFEVWGQGTMVTISS VL: QSALTQPPSASGSPGQSVTISCSGTSSDVGGYNFVSWYQHHPGKAPKILIYEVTKRPSGVPDRFSGSKSGNTASLTVSGLQAEDEADYYCSSYGGTNNLLFGGGTKLTVL |  | no binding (tested: 33 nM, 100 nM, and 300 nM)
